Assay results from patent publication US20160340412A1.

Target: C3
Test: analytical ultracentrifugation; self-association (dimer)

Kd: 188 µM
Substance: C3
